This note sets out measurements from the supplement of paper PMC7125110.

B1: glmS ribozyme (parent)
chain: AUAAAAGCGCCAGAACUACAGAAAUGUAGUUGACGAGGAGGAGGUUUAUCGAAUUUUCGGCGGAUGCCUCCAAA

What all share (conditions): with glucosamine-6-phosphate
In data set [1] the parent is B1. Nature of the data set: kcat; higher = faster cleavage; RNA array. A digest of the protocol: (§1)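 Tiles of sequenced MiSeq chips were imaged over ~14 h at 37 °C. On them, barcoded ribozyme variants had been transcribed in situ by E. coli RNA polymerase and were tracked via a hybridised Cy3 probe while glucosamine-6-phosphate (40 μM to 10 mM) in HEPES/KCl/Mg(OAc)2 buffer flowed in. Per-tile medians, normalised to baseline and to non-cleaving reference variants, were fit to one- or two-exponential decays for kobs, and weighted Michaelis–Menten fits gave kcat and KM.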

In data set [2] the parent is B1. Nature of the data set: self-cleavage kobs at 40 uM GlcN6P; higher = faster cleavage; RNA array. A digest of the protocol: as §1
Data set [3] covers variants of B1. Kind of data set: self-cleavage kobs at 2500 uM GlcN6P; higher = faster cleavage; RNA array. A digest of the protocol: as §1
Variants of B1 are the subject of data set [4]. Kind of data set: self-cleavage kobs at 10000 uM GlcN6P; higher = faster cleavage; RNA array. Summed up: as §1
Variants of B1 are the subject of data set [5]. Nature of the data set: self-cleavage kobs at 160 uM GlcN6P; higher = faster cleavage; RNA array. Summed up: as §1
The variants in data set [6] derive from B1. Kind of data set: self-cleavage kobs at 640 uM GlcN6P; higher = faster cleavage; RNA array. A digest of the protocol: as §1
Variants of B1 are the subject of data set [7]. Nature of the data set: KM; higher = weaker cofactor use; RNA array. Summed up: as §1

± gives the standard error. For some assays here: This sample holds only a part of the variants without activity. A value given as a limit tells only on which side of the number the result lay.

By kcat is commonly meant the number of substrate molecules converted per active site and unit of time at saturation. For the variant AUAAAUGCGCCAGAACUACAGAAAUGUAGUGGACGAGGAGGAGGUUUAUCGAAUUUUCGGCGGAUGCCUCCAAA [A6U U31G], the kcat in the data set with glucosamine-6-phosphate [1] was 8.41e-05 ± 1e-05 s⁻¹. In the data set with glucosamine-6-phosphate [2], the “self-cleavage kobs at 40 uM GlcN6P” value was under 1e-05 s⁻¹. Besides, the “self-cleavage kobs at 2500 uM GlcN6P” value with glucosamine-6-phosphate [3] came out at 7.42e-05 ± 1.9e-05 s⁻¹. Moreover, the “self-cleavage kobs at 10000 uM GlcN6P” value with glucosamine-6-phosphate [4] worked out at 7.27e-05 ± 1.2e-05 s⁻¹.
As to AUAAAAGCGCCAGAACUACAGAAAUGUAGUUGACGAGGAGGAGGUUUAUCGAAUUUUGGUCGGAUGCCUCCAAA [C58G G60U], the turnover number (kcat) with glucosamine-6-phosphate [1] is under 1e-05 s⁻¹. Moreover, in the data set with glucosamine-6-phosphate [2], the “self-cleavage kobs at 40 uM GlcN6P” value was under 1e-05 s⁻¹. Further, the “self-cleavage kobs at 160 uM GlcN6P” value in the data set with glucosamine-6-phosphate [5] is under 1e-05 s⁻¹. Also, the “self-cleavage kobs at 640 uM GlcN6P” value with glucosamine-6-phosphate [6] is under 1e-05 s⁻¹. Moreover, the “self-cleavage kobs at 2500 uM GlcN6P” value in the data set with glucosamine-6-phosphate [3] is under 1e-05 s⁻¹.
Usually KM stands for the concentration of substrate that gives half-maximal velocity. Turning to AUAAAAGCGCCAGAACUACAGAAAUGUAGUUGACGAGGAGGAGGUCUAGCGAAUUUUCGGCGGAUGCCUCCAAA [U46C U49G], in the data set with glucosamine-6-phosphate [1], the kcat came to 0.000109 ± 8.3e-06 s⁻¹. The KM in the data set with glucosamine-6-phosphate [7] is 817 ± 220 µM. In the data set with glucosamine-6-phosphate [6], the “self-cleavage kobs at 640 uM GlcN6P” value was 4.66e-05 ± 1.2e-05 s⁻¹. Besides, the “self-cleavage kobs at 2500 uM GlcN6P” value with glucosamine-6-phosphate [3] stood at 8.96e-05 ± 1.6e-05 s⁻¹. In the data set with glucosamine-6-phosphate [4], the “self-cleavage kobs at 10000 uM GlcN6P” value turned out to be 9.78e-05 ± 1.5e-05 s⁻¹.
Turning to AUAAAAGCGCCAGAACUACAGAAAUGUAGUUGACGAGGAGGAGGUUUAUCGAAUUUUCGGCGGACGCCGCCAAA [U65C U69G], in the data set with glucosamine-6-phosphate [1], the kcat was found to be 4.17e-05 ± 1.1e-05 s⁻¹. Further, in the data set with glucosamine-6-phosphate [3], the “self-cleavage kobs at 2500 uM GlcN6P” value came out at 5.5e-05 ± 2.3e-05 s⁻¹.
As to AUAAAAGCGCCAGAACUACAGAAAUGUAGUUGACGCGGAGGAGGUUUAUCGAAAUUUCGGCGGAUGCCUCCAAA [A36C U54A], the catalytic constant (kcat) with glucosamine-6-phosphate [1] is under 1e-05 s⁻¹. Also, the “self-cleavage kobs at 160 uM GlcN6P” value with glucosamine-6-phosphate [5] is under 1e-05 s⁻¹.
For the variant AUAAAAGCGCCAGAACUACAGAAAUGUAGUUGACGAGGAGGAGGUUUAUCGAAUUUUCGGCGGAUUCCGCCAAA [G66U U69G], the turnover number (kcat) with glucosamine-6-phosphate [1] was found to be 3.26e-05 ± 1.2e-05 s⁻¹. Also, the “self-cleavage kobs at 640 uM GlcN6P” value in the data set with glucosamine-6-phosphate [6] was 5.52e-05 ± 2.5e-05 s⁻¹. Besides, the “self-cleavage kobs at 2500 uM GlcN6P” value with glucosamine-6-phosphate [3] came out at 4.9e-05 ± 2.2e-05 s⁻¹.
Turning to AUAAAUGCGCCAGAACUACAGAAAUGUAGUUGACGAGGUGGAGGUUUAUCGAAUUUUCGGCGGAUGCCUUCAAA [A6U A39U C70U], the kcat with glucosamine-6-phosphate [1] came to 6.69e-05 ± 6e-06 s⁻¹. Also, the KM with glucosamine-6-phosphate [7] came out at 506 ± 210 µM. Besides, the “self-cleavage kobs at 640 uM GlcN6P” value in the data set with glucosamine-6-phosphate [6] stood at 3.98e-05 ± 1.7e-05 s⁻¹. Also, the “self-cleavage kobs at 2500 uM GlcN6P” value with glucosamine-6-phosphate [3] turned out to be 4.96e-05 ± 1.8e-05 s⁻¹. In addition, the “self-cleavage kobs at 10000 uM GlcN6P” value with glucosamine-6-phosphate [4] came to 6.76e-05 ± 1.9e-05 s⁻¹.
Turning to AUAAAAGCGCCACAACUACAGAAAUGUAGUUGACGAGGACGAGGUUUAUCGAAUUUUCGGCGGAUGCCUCCAAA [G13C G40C], the kcat with glucosamine-6-phosphate [1] turned out to be 4.48e-05 ± 2e-05 s⁻¹. For the same variant, in the data set with glucosamine-6-phosphate [2], the “self-cleavage kobs at 40 uM GlcN6P” value is under 1e-05 s⁻¹. For the same variant, the “self-cleavage kobs at 160 uM GlcN6P” value with glucosamine-6-phosphate [5] was under 1e-05 s⁻¹.
With AUAAAAGCGCCAGAACUACAGAAAUGUAGUUGACGAGGAGGGGGUUUAUCGAAUUUUCGGCGGAAGCCUCCAAA [A42G U65A], the kcat in the data set with glucosamine-6-phosphate [1] stood at 0.00459 ± 0.0018 s⁻¹. The “self-cleavage kobs at 40 uM GlcN6P” value with glucosamine-6-phosphate [2] turned out to be 0.000318 ± 9.9e-05 s⁻¹. The “self-cleavage kobs at 160 uM GlcN6P” value with glucosamine-6-phosphate [5] came out at 0.000409 ± 8.8e-05 s⁻¹. The “self-cleavage kobs at 640 uM GlcN6P” value in the data set with glucosamine-6-phosphate [6] amounted to 0.00121 ± 0.00028 s⁻¹. In addition, in the data set with glucosamine-6-phosphate [3], the “self-cleavage kobs at 2500 uM GlcN6P” value was 0.00291 ± 0.00077 s⁻¹. Besides, the “self-cleavage kobs at 10000 uM GlcN6P” value with glucosamine-6-phosphate [4] was determined as 0.00423 ± 0.0014 s⁻¹.
Take AUAAAAGCGCCAGAACUACAGAAAUGUAGUUGACGAGGAGGAGGUUUAUCGAAUUUUCGGCGGAUGUCGCCAAA [C67U U69G]: in the data set with glucosamine-6-phosphate [1], the kcat amounted to 3.43e-05 ± 1.5e-05 s⁻¹. The “self-cleavage kobs at 160 uM GlcN6P” value with glucosamine-6-phosphate [5] turned out to be 4.85e-05 ± 1.1e-05 s⁻¹. Moreover, in the data set with glucosamine-6-phosphate [3], the “self-cleavage kobs at 2500 uM GlcN6P” value came out at 4.75e-05 ± 1.2e-05 s⁻¹.
